T1: human CEACAM1 (as used in Surface Plasmon Resonance) (human)
T1 chain: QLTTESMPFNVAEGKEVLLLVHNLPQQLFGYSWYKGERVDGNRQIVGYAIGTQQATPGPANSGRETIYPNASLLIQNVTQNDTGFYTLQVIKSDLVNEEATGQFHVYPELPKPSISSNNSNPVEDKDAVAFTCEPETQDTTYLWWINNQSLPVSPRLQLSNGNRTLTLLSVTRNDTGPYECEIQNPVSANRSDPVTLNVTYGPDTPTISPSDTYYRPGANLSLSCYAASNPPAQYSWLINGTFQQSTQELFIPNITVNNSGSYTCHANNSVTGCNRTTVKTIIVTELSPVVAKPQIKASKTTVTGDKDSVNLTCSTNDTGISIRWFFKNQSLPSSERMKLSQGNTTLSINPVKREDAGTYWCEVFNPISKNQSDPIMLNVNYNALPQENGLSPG

B1: monoclonal antibody 38B5 (antibody, V domains shown)
VH: QIQLVQSGPELKKPGETVKISCKASGYIFRNYGMNWVKQAPGKGLKWMGWINTYTGEPTYADDFKGRFAFSLETSASTAYLQINNLKNEDMATYFCARRGWLLTGGAMDYWGQGTSVTVSQ
VL: DIQMTQSPSSLSASLGERVSLTCRASQDIGSSLNWLQQEPDGTIKRLIYATSSLDSGVPKRFSGSRSGSDYSLTISSLESEDFVDYYCLQYVSSPWTFGGGTKLEIKR
notes: also called mAb 38B5
B2: monoclonal antibody 36B11 (antibody, V domains shown)
VH: QIQLVQSGPDLKKPGETVKISCKASGYIFRNYGMNWVKQAPGKGLKWMGWINTYTGEPTYADDFKGRFAFSLETSASTAYLQINNLKNEDMATYFCARDCGTSHYYAMDYWGQGT
VL: DIQMTQTTSSLSASLGDRVTISCRASQDISNYLNWYQQKPDGTVKLLIYYTSRLHSGVPSRFSGSGSGTDYSLSISNLEQEDIATYFCQQGNTFPLTFGAGTKLDLKR
notes: the VH entry is cut short at its C-terminus; also called mAb 36B11
B3: monoclonal antibody 25C8 (antibody, V domains shown)
VH: QVQLQQSGAELVRPGTSVKVSCKASGYAFTIYLIEWVKQRPGQGLEWIGVINPGSGGTNYNEKFKGKATLTADKSSSTAFMQLSSLTSDDSAVYFCARSYYYGSFAMDYWGQGTSVTVSQ
VL: DVQMTQTISSLSASLGDRVTISCRASQDIGNYLNWYQQKPDGTVKLLIYYTSRLHSGVPSRFSGSGSGTDYSLTISNLEQEDIATYFCQQGNTLRTFGGGTKLEIKR
notes: also called mAb 25C8

Target: T1, human CEACAM1 (as used in Surface …)
Experiment: Surface Plasmon Resonance

Binder	Kd	koff	kon
B1	0.589 nM	0.000482 s⁻¹	818000 M⁻¹ s⁻¹
B2	1.42 nM	0.000108 s⁻¹	76100 M⁻¹ s⁻¹
B3	3.88 nM	0.000193 s⁻¹	49600 M⁻¹ s⁻¹

Source: patent US20210380687A1 (ALBERT EINSTEIN COLLEGE OF MEDICINE, published 2021)
